Reference: PMC6640709, “Selection and Characterization of a Nanobody Biosensor of GTP-Bound RHO Activities” (Antibodies, 2019)

B1: RH57 hs2dAb fused at its carboxy terminal end with 6xHis-Myc-6xHis tag (VHH)
VHH: EVQLQASGGGFVQPGGSLRLSCAASGDTWWSSAMGWFRQAPGKEREFVSAISFYPTEYTYYADSVKGRFTISRDNSKNTVYLQMNSLRAEDTATYYCAWIAWGPWMRTSWYWGQGTQVTVSS
notes: humanized synthetic single domain antibody from the NaLi-H1 phage display library; also called RH57-6xhis-myc-6xhis; RH57 nanobody; source: E. coli XL1BLUE periplasm, purified (His-tag purification beads); not shown: 6xHis, C-terminal, kept; Myc, C-terminal, kept
B2: RH57 intracellular antibody with carboxy-terminal 6xHis tag followed by Myc tag (VHH)
VHH: B1 VHH
notes: as the VHH of m1; also called hs2dAb RH57 with a 6xhis and carboxy Myc tag; source: HeLa, transiently transfected, in lysate; not shown: 6xHis, C-terminal, kept; Myc, C-terminal, kept

Experiments:
[1] = target: 2SHA-RHOA N19 dominant negative mutant, deleted for the CAAX motif (UniProt P61586 1-189, T19N); assay: SPR
Chain of 2SHA-RHOA N19 dominant negative mutant, deleted for the CAAX motif (P61586 1-189 T19N): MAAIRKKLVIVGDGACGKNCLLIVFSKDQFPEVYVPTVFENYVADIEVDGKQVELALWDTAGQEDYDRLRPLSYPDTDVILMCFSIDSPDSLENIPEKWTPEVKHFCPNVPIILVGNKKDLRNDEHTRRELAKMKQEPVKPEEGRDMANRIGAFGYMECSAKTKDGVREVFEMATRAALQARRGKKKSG

[2] = target: T1, 2SHA-RHOA wild type, deleted for the CAAX motif (Homo sapiens (Human)., UniProt P61586); assay: SPR; RH57-6xHis-Myc-6xHis captured on Ni-NTA chip; 2S-HA-RHOA WT loaded with GTPγS as analyte, 12.5-200 nM, single-cycle kinetics; HBS-P+; 1:1 Langmuir fit; details: both partners purified
T1 construct: RHOA (Ras homologous family member A), deleted for the carboxy terminal four amino acids (CAAX motif); the two nucleotide states are told apart by the assay; also called RHOA WT; 2S-HA-RHOA wt; source: E. coli BL21(DE3), purified (Strep-Tactin), loaded with GTPγS or GDP; not shown: 2x-Strep-tag, N-terminal, kept; HA, N-terminal, kept
T1 sequence (P61586 1-189, stated change not applied): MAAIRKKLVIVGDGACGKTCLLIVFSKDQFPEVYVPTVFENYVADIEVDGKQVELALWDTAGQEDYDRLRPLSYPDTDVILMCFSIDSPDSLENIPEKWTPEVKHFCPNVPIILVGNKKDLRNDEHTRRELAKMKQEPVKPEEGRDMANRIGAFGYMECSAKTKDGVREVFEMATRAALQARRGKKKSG

[3] = target: T2, 2SHA-RHOA L63 constitutively active mutant, deleted for the CAAX motif (Homo sapiens (Human)., UniProt P61586, Q63L); assay: SPR; RH57-6xHis-Myc-6xHis captured on Ni-NTA chip (250-300 RU); 2S-HA-RHOA L63 or N19 as analyte, 3.125-50 nM, single-cycle kinetics; HBS-P+ (10 mM HEPES pH 7.4, 150 mM NaCl, 0.05% P20); 1:1 Langmuir fit; BIAcore T200; details: both partners purified
T2 construct: RHOA (Ras homologous family member A), deleted for the carboxy terminal four amino acids (CAAX motif); also called RHOA-CA; RHOA Q63L; source: E. coli BL21(DE3), purified (Strep-Tactin); not shown: 2x-Strep-tag, N-terminal, kept; HA, N-terminal, kept
T2 sequence (P61586 1-189 Q63L): as the sequence (P61586 1-189 T19N) above, with N19T, Q63L counted along it

[4] = target: T3, endogenous RHOC (Homo sapiens (Human)., UniProt P08134); assay: co-IP; RH57-6xHis-Myc expressed in HeLa; fresh, non-loaded lysate; intracellular antibody captured on His-tag Ni-NTA resin; endogenous RHO proteins blotted; details: partners not purified
T3 construct: RHOC, endogenous in HeLa cells; also called RHOA/B/C proteins; source: endogenous, HeLa lysate
T3 sequence (P08134 whole entry): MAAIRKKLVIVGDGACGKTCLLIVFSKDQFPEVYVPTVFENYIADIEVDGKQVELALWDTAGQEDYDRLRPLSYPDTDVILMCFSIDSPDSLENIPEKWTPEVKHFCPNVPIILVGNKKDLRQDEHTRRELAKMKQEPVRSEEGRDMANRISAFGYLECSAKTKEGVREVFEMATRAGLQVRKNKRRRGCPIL

[5] = target: T4, endogenous RHOB (Homo sapiens (Human)., UniProt P62745); assay: as above; details: partners not purified
T4 construct: RHOB (RAS homologous family member B), endogenous in HeLa cells; also called RHOA/B/C proteins; source: endogenous, HeLa lysate
T4 sequence (P62745 whole entry): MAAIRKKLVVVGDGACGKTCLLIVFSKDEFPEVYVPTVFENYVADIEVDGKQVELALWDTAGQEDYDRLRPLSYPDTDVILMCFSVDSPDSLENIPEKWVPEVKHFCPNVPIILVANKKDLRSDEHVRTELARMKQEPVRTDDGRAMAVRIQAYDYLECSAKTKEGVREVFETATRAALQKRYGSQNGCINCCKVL

| Binder | Kd [1] [nM] | Kd [2] [nM] | Kd [3] [nM] | binding result [4] | binding result [5] |
| --- | --- | --- | --- | --- | --- |
| B1 | 2410 | 60.5 | 28 | – | – |
| B2 | – | – | – | binds | binds |
